The record followed here is paper PMC12063641.

Values joined by “and” are separate entries in the source; they are usually repeats but may differ in a detail not shown here. Equal values may be shown once.

In experiment [1] the target is HIV-1 NL4-3 Gag polyprotein precursor Pr55Gag with MA-L20K/E73K/A82T, uncleaved in immature VLPs (PR-D25N) (HIV-1 (NL4-3)). The experiment can be described thus: cryo-EM structure.
The target of experiment [2] is HIV-1 NL4-3 matrix protein p17 (MA) L20K, in mature virions or VLPs (HIV-1 (NL4-3)). The experiment is described as follows: SDS-resistant oligomer bands on SDS-PAGE and Western blot. For orientation: In western blotting, separated proteins are transferred to a membrane and probed.
Experiment [3] has as its target HIV-1 NL4-3 matrix protein p17 (MA) L20K/E73K/A82T, in mature virions or VLPs (HIV-1 (NL4-3)). The experiment is described as above.
The target in experiment [4] is purified recombinant MA L20K/E73K/A82T mutant protein (HIV-1). The experiment can be described thus: SDS-PAGE of purified protein (SDS-resistant oligomer bands).

Regarding “HIV-1 NL4-3 Gag polyprotein precursor Pr55Gag with MA-L20K/E73K/A82T, uncleaved in immature VLPs (PR-D25N) (natural protein)”, in experiment [1], the stoichiometry N – broadly, the number of molecules, sites or subunits per partner or assembly – was 3 and 6.

In the case of “HIV-1 NL4-3 matrix protein p17 (MA) L20K, in mature virions or VLPs (natural protein)”, the stoichiometry N in experiment [2] is 2 and 3.

Turning to “HIV-1 NL4-3 matrix protein p17 (MA) L20K/E73K/A82T, in mature virions or VLPs (natural protein)”, in experiment [3], the stoichiometry N was 2 and 3.

Consider “purified recombinant MA L20K/E73K/A82T mutant protein (domain or fragment)”, for which the stoichiometry N in experiment [4] was 2 and 3.
